Patent US20060121042A1 (AstraZeneca / MedImmune, published 2006)
Numbering of substitutions follows the chain as printed. Each block holds one binder with its values, some of them ahead of it.

Columns and labels:
hEphA2 = target: T1, hEphA2 (human, UniProt P29317); test: ELISA
T1 construct: also called human EphA2

r murine EphA7 [1] = target: T2, r murine EphA7 (mouse, UniProt Q61772); test: activity ELISA, Fab on coated antigen
T2 construct: recombinant Fc fusion (R&D Systems); also called rmuEphA7-Fc; mEphA7
T2 sequence (receptor-Fc fusion, looked up): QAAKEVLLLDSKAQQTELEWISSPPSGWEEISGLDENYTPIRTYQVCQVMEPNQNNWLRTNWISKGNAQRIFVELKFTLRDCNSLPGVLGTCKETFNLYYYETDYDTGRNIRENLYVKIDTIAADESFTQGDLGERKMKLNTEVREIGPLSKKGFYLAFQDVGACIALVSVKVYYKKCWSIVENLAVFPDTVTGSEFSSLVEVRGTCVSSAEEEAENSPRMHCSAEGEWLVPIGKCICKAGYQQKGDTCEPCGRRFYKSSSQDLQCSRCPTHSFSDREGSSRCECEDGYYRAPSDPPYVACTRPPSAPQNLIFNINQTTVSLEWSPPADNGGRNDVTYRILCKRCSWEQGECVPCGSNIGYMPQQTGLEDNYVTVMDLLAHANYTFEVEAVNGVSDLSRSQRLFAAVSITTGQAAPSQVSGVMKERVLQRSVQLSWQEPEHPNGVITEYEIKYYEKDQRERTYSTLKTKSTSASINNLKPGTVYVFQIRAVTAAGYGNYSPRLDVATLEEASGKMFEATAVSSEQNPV
Description: (§1) More precisely, Nunc Maxisorp plates were coated with the following rEphA proteins: rhuEphAl-Fc, rmuEphA2-Fc, rmuEphA3-Fc, rmuEphA4-Fc, rratEphA5-Fc, rmuEphA6-Fc, rmuEphA7-Fc, rEphA8; all at 0.5 μg/well (all R&D Systems) rhuEphA2-Fc; 0.5 μg/well, and rhuEphA4-His; 0.1 μg/well (both produced at MedImmune, Inc.). Plates were blocked with 3% BSA+0.1% Tween20 for 2 h. […] Incubation with a goat anti-human kappa horseradish peroxydase (HRP) conjugate then followed. HRP activity was detected with TMB substrate and the reaction quenched with 0.2 M H₂SO₄. Plates were read at 450 nm. Data was analyzed by normalizing Fab concentrations to the corresponding activity data (see FIGS. 10B-10H).

r murine EphA4 [2] = target: T3, r murine EphA4 (mouse, UniProt Q03137); test: activity ELISA, Fab on coated antigen
T3 construct: recombinant Fc fusion (R&D Systems); also called rmuEphA4-Fc; mEphA4
T3 sequence (Q03137 20-547 limits assumed): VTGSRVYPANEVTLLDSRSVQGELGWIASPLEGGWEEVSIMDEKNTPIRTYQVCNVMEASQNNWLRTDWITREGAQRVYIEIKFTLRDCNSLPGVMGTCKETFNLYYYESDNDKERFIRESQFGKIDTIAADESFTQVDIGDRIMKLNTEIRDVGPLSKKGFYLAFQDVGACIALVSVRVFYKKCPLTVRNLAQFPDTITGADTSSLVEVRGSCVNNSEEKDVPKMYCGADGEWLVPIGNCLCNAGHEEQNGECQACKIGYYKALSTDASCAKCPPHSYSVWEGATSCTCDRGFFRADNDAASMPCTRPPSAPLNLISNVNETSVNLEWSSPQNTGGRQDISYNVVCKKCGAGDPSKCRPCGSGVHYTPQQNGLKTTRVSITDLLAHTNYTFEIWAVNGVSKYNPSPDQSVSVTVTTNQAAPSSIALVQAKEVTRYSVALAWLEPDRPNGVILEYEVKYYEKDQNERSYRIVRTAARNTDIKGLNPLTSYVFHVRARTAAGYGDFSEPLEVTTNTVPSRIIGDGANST
Description: as §1

[3] = target: T4, Human EphA4-Fc fusion protein (human, UniProt P54764 20-547); test: BIAcore, IgG immobilized on the sensor chip, EphA4-Fc as analyte
T4 construct: not shown: Fc portion of a human IgG1
T4 sequence (P54764 20-547): as the sequence (Q03137 20-547 limits assumed) above, with A59P, S121N, G124V, Q250R, N251S, S270T, R378K, S406N counted along it
Description: (§2) FIG. 15A-15B. […] Binding affinities were measured using the BIAcore assay. […] Variant kinetic measurements for human EphA4 and were obtained using BIAcore with immobilized variant antibodies and human EphA4-Fc and EphA4-His as analytes.

r murine EphA7 [4] = target: T2, r murine EphA7; test: activity ELISA, IgG on coated antigen
Description: (§3) Secondary screening of IgG constructs of affinity optimized combinatorial variants with additional EphA receptors: With purified IgG constructs of the nine combinatorial variants, additional secondary screening assays were performed using the Activity ELISA (see above) and recombinant EphA receptor proteins. More precisely, Nunc Maxisorp plates were coated with the following rEphA proteins: rhuEphAl-Fc; 0.5 μg/well, rmuEphA2-Fc; 0.5 μg/well, rmuEphA3-Fc: 0.1 μg/well, rmuEphA4-Fc; 0.1 μg/well, rratEphA5-Fc; 0.5 μg/well, rmuEphA6-Fc; 0.5 μg/well, rmuEphA7-Fc; 0.1 μg/well, rEphA8; 0.2 μg/well (all R&D Systems), rhuEphA2-Fc; 0.5 μg/well, and rhuEphA4-His; 0.1 μg/well (both produced at MedImmune, Inc.). Plates were blocked with 3% BSA+0.1% Tween20 for 2 h. […] Incubation with a goat anti-human kappa horseradish peroxydase (HRP) conjugate then followed. HRP activity was detected with TMB substrate and the reaction quenched with 0.2 M H₂SO₄. Plates were read at 450 nm. Data was analyzed by normalizing Fab concentrations to the corresponding activity data (see FIGS. 12A-12J and 14).

r murine EphA4 [5] = target: T3, r murine EphA4; test: activity ELISA, IgG on coated antigen
Description: as §3

mEphA7 = target: T5, mEphA7 (mouse, UniProt Q61772); test: ELISA, receptor coated on the plate, purified IgG, anti-human kappa-HRP
T5 construct: part of an Fc fusion; also called rmuEphA7-Fc
T5 sequence (receptor-Fc fusion, looked up): T2 sequence (receptor-Fc fusion, looked up)
Description: as §3

mEphA4 = target: T6, mEphA4 (mouse, UniProt Q03137); test: as above
T6 construct: part of an Fc fusion; also called rmuEphA4-Fc
T6 sequence (Q03137 20-547 limits assumed): as the sequence (Q03137 20-547 limits assumed) above
Description: as §3

[6] = target: T7, Human EphA4-His fusion protein (human, UniProt P54764 20-547); test: BIAcore, IgG immobilized on the sensor chip, EphA4-his as analyte
T7 construct: also called rhuEphA4-His; not shown: Histidine tag
T7 sequence (P54764 20-547): as the sequence (Q03137 20-547 limits assumed) above, with A59P, S121N, G124V, Q250R, N251S, S270T, R378K, S406N counted along it
Description: as §2

T1 sequence (P29317 25-534 limits assumed): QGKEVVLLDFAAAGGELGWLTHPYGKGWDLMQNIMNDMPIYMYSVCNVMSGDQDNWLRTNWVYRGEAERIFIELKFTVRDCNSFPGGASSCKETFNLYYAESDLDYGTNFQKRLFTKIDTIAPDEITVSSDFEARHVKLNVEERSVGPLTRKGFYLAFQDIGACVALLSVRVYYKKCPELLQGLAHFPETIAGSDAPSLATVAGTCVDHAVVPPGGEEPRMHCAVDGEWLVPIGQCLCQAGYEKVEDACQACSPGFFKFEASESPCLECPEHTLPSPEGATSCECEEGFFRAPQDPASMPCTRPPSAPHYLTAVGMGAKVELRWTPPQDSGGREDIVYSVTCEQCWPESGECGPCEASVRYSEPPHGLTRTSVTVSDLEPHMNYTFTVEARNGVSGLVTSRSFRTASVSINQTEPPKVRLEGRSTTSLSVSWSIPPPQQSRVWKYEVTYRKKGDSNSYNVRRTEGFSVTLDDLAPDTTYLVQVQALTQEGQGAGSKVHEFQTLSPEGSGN

B1: EA5 (antibody, V domains shown)
VH: EVQLQQSGPELVKTGASVKISCKASGYSFTGYYMHWVKQSHGKSLEWIGYISCYNGVTSYNQKFKGKATFTVDTSSSTAYMQFNSLTSEDSAVYYCARSHAMDYWGQGTSVTVSS
VL: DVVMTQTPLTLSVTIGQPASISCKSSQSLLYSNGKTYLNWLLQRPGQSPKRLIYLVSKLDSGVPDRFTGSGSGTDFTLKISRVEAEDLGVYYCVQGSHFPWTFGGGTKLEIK
ELISA O.D. value (hEphA2): 0.131

B2: 12G3H11 (antibody, V domains shown)
VH: QMQLVQSGPEVKKPGTSVKVSCKASGFTFDDYSMNWVRQARGQRLEWIGFIRNKANDYTTEYADSVKGRVTITRDMSTSTAYMELSSLRSEDTAVYYCARYPRHHAMDSWGQGTSVTVSS
VL: DIQMTQSPSSLSASVGDRVTITCRASQSISNNLHWYQQKPGKAPKLLIKYAFQSISGVPSRFSGSGSGTDFTFTISSLQPEDFATYYCQQANSWPLTFGGGTKVEIK
ELISA O.D. value (hEphA2): 0.849

B3: 4H5 (antibody, V domains shown)
VH: QVQLLESGGGLVQPGGSLRLSCAASGFTFSSYTMSWVRQAPGQALEWMGTISSGGTYTYYPDSVKGRFTISRDNAKNSLYLQMNSLRAEDTAVYYCAREAIFTYWGRGTLVTVSS
VL: DIQLTQSPSSLSASVGDRVTITCKASQDINNYLSWYQQKPGQAPRLLIYRANRLVDGVPDRFSGSGYGTDFTLTINNIESEDAAYYFCLKYDVFPYTFGQGTKVEIK
ELISA O.D. value (hEphA2): 0.724

B5: 3C6 Fab (affinity optimized combinatorial variant of Fab20) (Fab, V domains shown)
VH: QVQLLQSGAEVKKPGASVKVPCKASGYTFTSRAMSWVRQAPGQGLEWMGWINTNTGNPTYAQGFTGRFVFSLDTSVSTAYLQISSLKAEDTAVYYCARVRLTVYGDGMDVWGQGTLVTVSS
VL: EIVLTQSPATLSVSPGERATLSCRASQSVSSNPPWYQQKPGQAPRLLIYGASTRATGIPDRFSASGSGTDFTLTISRVEPEDFAVYYCQQYGSSWTFGQGTKVEIK
binding result (r murine EphA7 [1]): binds | binding result (r murine EphA4 [2]): binds

B6: 1D11 Fab (affinity optimized combinatorial variant of Fab20) (Fab, V domains shown)
VH: B5 VH with L101T, G107N
VL: B5 VL with P33L, S93P
binding result (r murine EphA7 [1]): binds | binding result (r murine EphA4 [2]): binds

Continued, values first:

binding result (r murine EphA7 [1]): binds | binding result (r murine EphA4 [2]): binds
B4: 1B10 Fab (affinity optimized combinatorial variant of Fab20) (Fab, V domains shown)
VH: B5 VH with L101F
VL: B5 VL with P34A, R54W, S93P

Kd [3]: 0.197 nM | koff [3]: 2.2e-05 s⁻¹ | kon [3]: 112000 M⁻¹ s⁻¹
B7: 8B4 IgG1 (affinity optimized combinatorial variant of mAb GEA44 in human IgG1 format) (antibody, V domains shown)
VH: B5 VH
VL: B5 VL with P34A, A51L, S93P

binding result (r murine EphA7 [4]): binds | binding result (r murine EphA4 [5]): binds | binding result (mEphA7): binds | binding result (mEphA4): binds | Kd [3]: 0.176 nM | koff [3]: 6.15e-05 s⁻¹ | kon [3]: 350000 M⁻¹ s⁻¹ | Kd [6]: 8.8 nM | koff [6]: 0.000984 s⁻¹ | kon [6]: 112000 M⁻¹ s⁻¹
B8: 1D11 IgG1 (affinity optimized combinatorial variant of mAb GEA44 in human IgG1 format) (antibody, V domains shown)
VH: B5 VH with L101T, G107N
VL: B5 VL with P33L, S93P
